# Results taken from patent US9090549B2, “1,4-naphthoquinones derivatives and therapeutic use thereof” (CENTRE NATIONAL DE LA RECHERCHE SCIENTIFIQUE (C.N.R.S.), priority 2008, dated 2015).
# Substrate: CC1=C(C(=O)c2ccc(Br)cc2)C(=O)C2C=CC=CC2C1=O
# Assay: 1,4-Naphthoquinone reductase activity of P. falciparum glutathione reductase
# Format: biochemical, Plasmodium falciparum
# Conditions: other: pH 6.9, 100 μM NADPH, 1% DMSO
# Protocol: The reduction assay mixture consisted of 100 mM potassium phosphate buffer pH 6.9, 200 mM KCl, 1 mM EDTA and 100 μM NADPH in a total volume of 1 mL. 1,4-naphthoquinone reductase activity was determined by recording the initial velocities in the presence of increasing naphthoquinone concentrations (0-300 μM). The 1,4-naphthoquinone was first dissolved in DMSO, and a final 1% DMSO concentration was kept constant in the 1,4-naphthoquinone reductase assay. For the determination of KM and Vmax values, the steady-state rates were fitted by using nonlinear regression analysis software (Kaleidagraph) to the Michaelis-Menten equation. From these values, the turnover number kcat and the catalytic efficiency kcat/KM were calculated.
protein,measurement,value
P. falciparum glutathione reductase (PfGR) (Plasmodium falciparum K1) (protein) VYDLIVIGGGSGGMAAARRAARHNAKVALVEKSRLGGTCVNVGCVPKKIMFNAASVHDILENSRHYGFDTKFSFNLPLLVERRDKYIQRLNNIYRQNLSKDKVDLYEGTASFLSENRILIKGTKDNNNKDNGPLNEEILEGRNILIAVGNKPVFPPVKGIENTISSDEFFNIKESKKIGIVGSGYIAVELINVIKRLGIDSYIFARGNRILRKFDESVINVLENDMKKNNINIVTFADVVEIKKVSDKNLSIHLSDGRIYEHFDHVIYCVGRSPDTENLKLEKLNVETNNNYIVVDENQRTSVNNIYAVGDCCMVKKSKEIEDLNLLKLYNEERYLNKKENVTEDIFYNVQLTPVAINAGRLLADRLFLKKTRKTNYKLIPTVIFSHPPIGTIGLSEEAAIQIYGKENVKIYESKFTNLFFSVYDIEPELKEKTYLKLVCVGKDELIKGLHIIGLNADEIVQGFAVALKMNATKKDFDETIPIHPTAAEEFLTLQPWMK,Km,6.1 µM
